Measured values: publication PMC8064030

Target: HIV-1 CA carrying the A92E substitution (HIV-1)
Assay: cryo-EM structure

Substance: HIV-1 CA carrying the A92E substitution (natural protein)
- stoichiometry N: 6
